Measured values published in patent US20060140932A1 (APPLIED MOLECULAR EVOLUTION, published 2006).

Experiments:
human IL-1β [1] = biological target: T1, human IL-1β (human, UniProt P01584 117-269); assay: cell-based or functional assay
human IL-1β [2] = biological target: T1, human IL-1β; assay: SPR (BIAcore), captured antibody, human IL-1β flowed; protocol for Mu007 as in PCT/US02/21281; HBS-EP pH 7.4, 25 C
human IL-1β [3] = biological target: T1, human IL-1β; assay: cell-based or functional assay; remark: listed apart in the source
human IL-1β [4] = biological target: T1, human IL-1β; assay: SPR (BIAcore), antibody captured on protein A, human IL-1β flowed; HBS-EP pH 7.4, 25 C
Experimental: BIAcore™ is an automated biosensor system that measures molecular interactions. (Karlsson, et al. (1991) J. Immunol. Methods 145: 229-240). In these experiments antibody was captured to a surface at low density on a BIAcore™ chip. Ethyl-dimethylaminopropyl-carbodiimide (EDC) was used to couple reactive amino groups to protein A to a flow cell of a carboxy-methyl (CM5) BIAcore sensor chip. Protein A was diluted in sodium acetate buffer, pH 4.5, and immobilized on a flow cell of a CM5 chip using EDC to yield 1000 response units. Unreacted sites were blocked with ehanolamine. A flow rate of 60 μl/min was used. […] Elution was performed with glycine-HCl, pH 1.5. BIAevaluation™ was used to analyze the kinetic data.

Binder	Fold Increase in Potency (against Mu007), T1165.17 cell proliferation assay (human IL-1β [1])	IC50, T1165.17 cell proliferation assay (human IL-1β 0.3 pM) (human IL-1β [1])	Kd (human IL-1β [2])	koff (human IL-1β [2])	kon (human IL-1β [2])	IL-6 Serum Levels in mice, human IL-1β 3 µg/kg + antibody 13 µg/kg (human IL-1β [3])	IL-6 Serum Levels in mice, human IL-1β 3 µg/kg + antibody 27 µg/kg (human IL-1β [3])	IL-6 Serum Levels in mice, human IL-1β 3 µg/kg + antibody 81 µg/kg (human IL-1β [3])	IL-6 Serum Levels in mice, human IL-1β 3 µg/kg + antibody 270 µg/kg (human IL-1β [3])	Kd (human IL-1β [4])	koff (human IL-1β [4])	kon (human IL-1β [4])
Mu007 (antibody, V domains shown) VH: QVQLQQSGAELMKPGASVKISCKATGYTFSRYWIEWIKQRPGHGLEWIGEILPGNGNINYNEKFKGKATISADSSSETAYMQLSSLSSEDSAVYYCSTIYYDYDQGFTYWGQGTLVTVSA VL: DIKMTQSPSSMYASLGERVTITCKASQDIDRYLSWFQQKPGKSPKTLIYRVKRLVDGVPSRFSGSASGQDYSLTISSLQYEDMGIYYCLQYDEFPYTFGGGTKLEIK	1 fold	20.6 pM	6.2 pM	0.00016 s⁻¹	2.6e+07 M⁻¹ s⁻¹							
W17 (IgG1) (antibody, humanized, IgG1 kappa) heavy: not shown light: DIQMTQSPSSLSASVGDRVTITCKFSQDIDRFLSWFQQKPGKAPKSLIYRVKRLVDGVPSRFSGSGSGTDFTLTISSLQPEDFATYYCVQYDEFPYGFGGGTKVEIKRTVAAPSVFIFPPSDEQLKSGTASVVCLLNNFYPREAKVQWKVDNALQSGNSQESVTEQDSKDSTYSLSSTLTLSKADYEKHKVYACEVTHQGLSSPVTKSFNRGEC	11 fold	1.8 pM				567 pg/mL	410 pg/mL	114 pg/mL	27.5 pg/mL	2.8 pM	9e-05 s⁻¹	3.1e+07 M⁻¹ s⁻¹
W17 (IgG4) (antibody, humanized, IgG4 kappa) heavy: not shown light: DIQMTQSPSSLSASVGDRVTITCKFSQDIDRFLSWFQQKPGKAPKSLIYRVKRLVDGVPSRFSGSGSGTDFTLTISSLQPEDFATYYCVQYDEFPYGFGGGTKVEIKRTVAAPSVFIFPPSDEQLKSGTASVVCLLNNFYPREAKVQWKVDNALQSGNSQESVTEQDSKDSTYSLSSTLTLSKADYEKHKVYACEVTHQGLSSPVTKSFNRGEC	12 fold	1.7 pM								3.3 pM	0.0001 s⁻¹	3.2e+07 M⁻¹ s⁻¹
W13 (IgG1) (antibody, V domains shown, humanized, IgG1 kappa) VH: QVQLVQSGAEVKKPGSSVKVSCKASGYTFDRYWIEWVRQAPGQGLEWMGEILPGSGDINYNEKFKGRVTITADKSTSTAYMELSSLRSEDTAVYYCARMYYDYDQGFDYWGQGTLVTVSS VL: DIQMTQSPSSLSASVGDRVTITCKFSQDIDRFLTWFQQKPGKAPKSLIYRVKRLVDGVPSRFSGSGSGTDFTLTISSLQPEDFATYYCIQYDEFPYTFGGGTKVEIKR	17 fold	1.2 pM				655 pg/mL	277 pg/mL	129 pg/mL	23.4 pg/mL	2.8 pM	0.00017 s⁻¹	6.1e+07 M⁻¹ s⁻¹
U43 (IgG1) (antibody, V domains shown, humanized, IgG1 kappa) VH: QVQLVQSGAEVKKPGSSVKVSCKASGYTFDRYWIEWVRQAPGQGLEWMGEILPGSGDINYNEKFKGRVTITADKSTSTAYMELSSLRSEDTAVYYCARMYYDYDQGFSLWGQGTLVTVSS VL: DIQMTQSPSSLSASVGDRVTITCKASQDIDRFLSWFQQKPGKAPKSLIYRVKRLVDGVPSRFSGSGSGTDFTLTISSLQPEDFATYYCVQYDEFPYTFGGGTKVEIKR	5 fold	4 pM				756 pg/mL	509 pg/mL	186 pg/mL	39.3 pg/mL	4.7 pM	0.00022 s⁻¹	4.7e+07 M⁻¹ s⁻¹
W18 (IgG1) (antibody, V domains shown, humanized, IgG1 kappa) VH: QVQLVQSGAEVKKPGSSVKVSCKASGYTFDRYWIEWVRQAPGQGLEWMGEILPGSGTINYNEKFKGRVTITADKSTSTAYMELSSLRSEDTAVYYCARMYYDYDQGFDNWGQGTLVTVSS VL: DIQMTQSPSSLSASVGDRVTITCKFSQDIDRFLSWFQQKPGKAPKSLIYRVKRLVDGVPSRFSGSGSGTDFTLTISSLQPEDFATYYCVQYDEFPYTFGGGTKVEIKR	10 fold	2 pM				398 pg/mL	232 pg/mL	77.9 pg/mL	18 pg/mL	4.2 pM	0.00018 s⁻¹	4.1e+07 M⁻¹ s⁻¹
W20 (IgG1) (antibody, V domains shown, humanized, IgG1 kappa) VH: QVQLVQSGAEVKKPGSSVKVSCKASGYTFDRYWIEWVRQAPGQGLEWMGEILPGSGDINYNEKFKGRVTITADKSTSTAYMELSSLRSEDTAVYYCARMYYDYDQGFDYWGQGTLVTVSS VL: DIQMTQSPSSLSASVGDRVTITCKFSQDIDRFLSWFQQKPGKAPKSLIYRVKRLVDGVPSRFSGSGSGTDFTLTISSLQPEDFATYYCVQYDEFPYTFGGGTKVEIKR	17 fold	1.2 pM								2.7 pM	0.0001 s⁻¹	3.8e+07 M⁻¹ s⁻¹
